Assay results taken from patent US20030211540.

Test system: T1, PKC inhibitor peptide 19-31 (Arg-Phe-Ala-Arg-Lys-Gly-Ala-Leu-Arg-Gin-Lys-Asn-Val)
T1 sequence: RFARKGALRQKNV

## Protein kinase C
  insulin-stimulated DNA synthesis (BrDU incorporation) under high glucose after microinjection of the peptide: partially reversed inhibition of DNA synthesis
